Data from paper PMC6613617, “Human DNA polymerase delta requires an iron–sulfur cluster for high-fidelity DNA synthesis”.

What was measured:
[1] = molecular target: T1, POLD1-CS;POLD2;POLD3;POLD4;PCNA (Homo sapiens;Homo sapiens;Homo …, UniProt P28340;P49005;Q15054;Q9HCU8;P12004 1-1107;1-469;1-466;1-107;1-261, C1076S||||); assay: EMSA; copurified with PCNA; defect alleviated; EMSA: 20 mM Tris-HCl pH 8.0, 20 mM KCl, 1 mM EDTA, 0.5 mM TCEP, 20 nM probe, 10-80 nM Pol delta, 25 C 30 min; 7% native PAGE, 0.5x TBE; conditions: protein: recombinant;recombinant;recombinant;recombinant;recombinant; copies: 1;1;1;1;3; label: 5'-fluorescein (FAM) on strand 1; blunt; one unpaired A in strand 2 as printed
[2] = molecular target: T2, POLD1-HY;POLD2;POLD3;POLD4 (Homo sapiens;Homo sapiens;Homo …, UniProt P28340;P49005;Q15054;Q9HCU8 1-1107;1-469;1-466;1-107, H1066Y|||); assay: EMSA; without PCNA; not impaired; EMSA: 20 mM Tris-HCl pH 8.0, 20 mM KCl, 1 mM EDTA, 0.5 mM TCEP, 20 nM probe, 10-80 nM Pol delta, 25 C 30 min; 7% native PAGE, 0.5x TBE; conditions: protein: recombinant;recombinant;recombinant;recombinant; copies: 1;1;1;1; label: 5'-fluorescein (FAM) on strand 1; blunt; one unpaired A in strand 2 as printed
T2 sequence (P28340 whole entry H1066Y, chain 1 of 4): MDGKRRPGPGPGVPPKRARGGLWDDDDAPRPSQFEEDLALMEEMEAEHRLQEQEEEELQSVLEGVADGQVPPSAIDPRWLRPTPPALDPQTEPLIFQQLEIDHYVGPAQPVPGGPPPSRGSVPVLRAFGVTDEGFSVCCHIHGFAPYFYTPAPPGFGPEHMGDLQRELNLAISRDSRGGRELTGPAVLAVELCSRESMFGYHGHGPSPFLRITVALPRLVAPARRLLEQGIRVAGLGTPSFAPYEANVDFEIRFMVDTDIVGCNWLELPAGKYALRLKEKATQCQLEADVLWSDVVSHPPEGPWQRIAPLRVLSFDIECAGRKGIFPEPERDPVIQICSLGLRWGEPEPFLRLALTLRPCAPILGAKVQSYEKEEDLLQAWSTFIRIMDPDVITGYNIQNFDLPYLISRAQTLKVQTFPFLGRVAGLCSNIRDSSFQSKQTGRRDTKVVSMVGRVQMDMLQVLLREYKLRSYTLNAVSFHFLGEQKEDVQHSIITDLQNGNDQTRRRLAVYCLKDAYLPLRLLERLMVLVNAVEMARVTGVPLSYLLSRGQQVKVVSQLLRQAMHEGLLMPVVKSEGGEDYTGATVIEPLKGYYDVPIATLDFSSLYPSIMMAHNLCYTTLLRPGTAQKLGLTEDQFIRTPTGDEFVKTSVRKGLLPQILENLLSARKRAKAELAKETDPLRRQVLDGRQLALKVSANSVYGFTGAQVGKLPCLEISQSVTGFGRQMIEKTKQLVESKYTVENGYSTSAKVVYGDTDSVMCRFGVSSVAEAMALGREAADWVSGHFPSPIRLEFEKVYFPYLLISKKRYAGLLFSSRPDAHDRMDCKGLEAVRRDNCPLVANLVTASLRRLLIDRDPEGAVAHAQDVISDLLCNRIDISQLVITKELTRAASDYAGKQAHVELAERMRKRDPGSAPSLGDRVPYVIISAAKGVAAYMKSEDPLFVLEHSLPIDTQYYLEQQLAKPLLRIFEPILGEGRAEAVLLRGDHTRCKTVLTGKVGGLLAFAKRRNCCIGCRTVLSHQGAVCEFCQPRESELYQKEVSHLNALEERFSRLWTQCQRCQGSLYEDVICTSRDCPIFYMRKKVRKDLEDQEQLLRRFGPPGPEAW
T2 sequence (P49005 whole entry, chain 2 of 4): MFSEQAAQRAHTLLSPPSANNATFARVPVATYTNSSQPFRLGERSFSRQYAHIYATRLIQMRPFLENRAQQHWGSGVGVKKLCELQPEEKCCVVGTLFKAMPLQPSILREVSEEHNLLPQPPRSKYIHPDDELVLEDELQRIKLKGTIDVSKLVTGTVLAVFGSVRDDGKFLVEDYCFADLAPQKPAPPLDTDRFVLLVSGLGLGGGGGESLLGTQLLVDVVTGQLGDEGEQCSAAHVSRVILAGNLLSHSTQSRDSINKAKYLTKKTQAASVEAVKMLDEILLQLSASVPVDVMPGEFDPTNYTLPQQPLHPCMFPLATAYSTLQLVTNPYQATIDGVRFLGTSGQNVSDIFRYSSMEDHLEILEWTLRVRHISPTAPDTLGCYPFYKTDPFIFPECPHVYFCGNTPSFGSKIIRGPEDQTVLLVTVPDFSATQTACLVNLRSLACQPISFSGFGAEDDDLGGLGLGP
T2 sequence (Q15054 whole entry, chain 3 of 4): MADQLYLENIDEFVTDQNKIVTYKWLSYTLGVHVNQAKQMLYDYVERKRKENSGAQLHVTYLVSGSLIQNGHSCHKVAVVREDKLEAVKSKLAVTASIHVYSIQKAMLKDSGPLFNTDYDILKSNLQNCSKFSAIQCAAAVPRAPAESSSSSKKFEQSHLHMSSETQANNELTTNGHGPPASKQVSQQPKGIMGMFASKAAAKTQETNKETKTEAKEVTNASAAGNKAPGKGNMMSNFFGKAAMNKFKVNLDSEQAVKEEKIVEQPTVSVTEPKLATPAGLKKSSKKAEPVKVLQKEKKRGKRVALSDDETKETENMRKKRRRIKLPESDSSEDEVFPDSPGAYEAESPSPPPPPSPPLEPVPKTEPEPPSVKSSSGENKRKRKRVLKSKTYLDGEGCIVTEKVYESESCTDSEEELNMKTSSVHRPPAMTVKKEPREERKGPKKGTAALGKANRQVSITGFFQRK
T2 sequence (Q9HCU8 whole entry, chain 4 of 4): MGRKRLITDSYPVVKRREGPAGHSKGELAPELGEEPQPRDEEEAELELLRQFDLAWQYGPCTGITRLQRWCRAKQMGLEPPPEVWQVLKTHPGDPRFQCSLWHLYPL

[3] = molecular target: T3, POLD1-HW;POLD2;POLD3;POLD4 (Homo sapiens;Homo sapiens;Homo …, UniProt P28340;P49005;Q15054;Q9HCU8 1-1107;1-469;1-466;1-107, H1066W|||); assay: as above; conditions: protein: recombinant;recombinant;recombinant;recombinant; copies: 1;1;1;1; label: 5'-fluorescein (FAM) on strand 1; blunt; one unpaired A in strand 2 as printed
T3 sequence (P28340 whole entry H1066W, chain 1 of 4): as the sequence (P28340 whole entry H1066Y, chain 1 of 4) above, with Y1066W counted along it
T3 sequence (P49005 whole entry, chain 2 of 4): as the sequence (P49005 whole entry, chain 2 of 4) above
T3 sequence (Q15054 whole entry, chain 3 of 4): as the sequence (Q15054 whole entry, chain 3 of 4) above
T3 sequence (Q9HCU8 whole entry, chain 4 of 4): as the sequence (Q9HCU8 whole entry, chain 4 of 4) above

[4] = molecular target: T4, POLD1-CS;POLD2;POLD3;POLD4 (Homo sapiens;Homo sapiens;Homo …, UniProt P28340;P49005;Q15054;Q9HCU8 1-1107;1-469;1-466;1-107, C1076S|||); assay: EMSA; without PCNA; no defect; EMSA: 20 mM Tris-HCl pH 8.0, 20 mM KCl, 1 mM EDTA, 0.5 mM TCEP, 20 nM probe, 10-80 nM Pol delta, 25 C 30 min; 7% native PAGE, 0.5x TBE; conditions: protein: recombinant;recombinant;recombinant;recombinant; copies: 1;1;1;1; label: 5'-fluorescein (FAM); single strand
T4 sequence (P28340 whole entry C1076S, chain 1 of 4): as the sequence (P28340 whole entry H1066Y, chain 1 of 4) above, with Y1066H, C1076S counted along it
T4 sequence (P49005 whole entry, chain 2 of 4): as the sequence (P49005 whole entry, chain 2 of 4) above
T4 sequence (Q15054 whole entry, chain 3 of 4): as the sequence (Q15054 whole entry, chain 3 of 4) above
T4 sequence (Q9HCU8 whole entry, chain 4 of 4): as the sequence (Q9HCU8 whole entry, chain 4 of 4) above

[5] = molecular target: T1, POLD1-CS;POLD2;POLD3;POLD4;PCNA; assay: EMSA; copurified with PCNA; no defect; EMSA: 20 mM Tris-HCl pH 8.0, 20 mM KCl, 1 mM EDTA, 0.5 mM TCEP, 20 nM probe, 10-80 nM Pol delta, 25 C 30 min; 7% native PAGE, 0.5x TBE; conditions: protein: recombinant;recombinant;recombinant;recombinant;recombinant; copies: 1;1;1;1;3; label: 5'-fluorescein (FAM); single strand
[6] = molecular target: T4, POLD1-CS;POLD2;POLD3;POLD4; assay: EMSA; without PCNA; less second (super-shifted) band than WT; EMSA: 20 mM Tris-HCl pH 8.0, 20 mM KCl, 1 mM EDTA, 0.5 mM TCEP, 20 nM probe, 10-80 nM Pol delta, 25 C 30 min; 7% native PAGE, 0.5x TBE; conditions: protein: recombinant;recombinant;recombinant;recombinant; copies: 1;1;1;1; label: 5'-fluorescein (FAM) on strand 1; 5' overhang 16 nt on template strand 2; one unpaired A in strand 2 as printed
[7] = molecular target: T1, POLD1-CS;POLD2;POLD3;POLD4;PCNA; assay: EMSA; copurified with PCNA; less second (super-shifted) band than WT; EMSA: 20 mM Tris-HCl pH 8.0, 20 mM KCl, 1 mM EDTA, 0.5 mM TCEP, 20 nM probe, 10-80 nM Pol delta, 25 C 30 min; 7% native PAGE, 0.5x TBE; conditions: protein: recombinant;recombinant;recombinant;recombinant;recombinant; copies: 1;1;1;1;3; label: 5'-fluorescein (FAM) on strand 1; 5' overhang 16 nt on template strand 2; one unpaired A in strand 2 as printed
[8] = molecular target: POLD1 WT (catalytic subunit of Pol delta);POLD2;POLD3;POLD4;PCNA (Homo sapiens;Homo sapiens;Homo …, UniProt P28340;P49005;Q15054;Q9HCU8;P12004 1-1107;1-469;1-466;1-107;1-261, ||||); assay: EMSA; copurified with PCNA; EMSA: 20 mM Tris-HCl pH 8.0, 20 mM KCl, 1 mM EDTA, 0.5 mM TCEP, 20 nM probe, 10-80 nM Pol delta, 25 C 30 min; 7% native PAGE, 0.5x TBE; conditions: protein: recombinant;recombinant;recombinant;recombinant;recombinant; copies: 1;1;1;1;3; label: 5'-fluorescein (FAM) on strand 1; 5' overhang 16 nt on template strand 2; one unpaired A in strand 2 as printed
[9] = molecular target: POLD1-HW;POLD2;POLD3;POLD4;PCNA (Homo sapiens;Homo sapiens;Homo …, UniProt P28340;P49005;Q15054;Q9HCU8;P12004 1-1107;1-469;1-466;1-107;1-261, H1066W||||); assay: as above; conditions: protein: recombinant;recombinant;recombinant;recombinant;recombinant; copies: 1;1;1;1;3; label: 5'-fluorescein (FAM) on strand 1; 5' overhang 16 nt on template strand 2; one unpaired A in strand 2 as printed
[10] = molecular target: POLD1-HY;POLD2;POLD3;POLD4;PCNA (Homo sapiens;Homo sapiens;Homo …, UniProt P28340;P49005;Q15054;Q9HCU8;P12004 1-1107;1-469;1-466;1-107;1-261, H1066Y||||); assay: as above; conditions: protein: recombinant;recombinant;recombinant;recombinant;recombinant; copies: 1;1;1;1;3; label: 5'-fluorescein (FAM) on strand 1; 5' overhang 16 nt on template strand 2; one unpaired A in strand 2 as printed
[11] = molecular target: POLD1 WT (catalytic subunit of Pol delta);POLD2;POLD3;POLD4 (Homo sapiens;Homo sapiens;Homo …, UniProt P28340;P49005;Q15054;Q9HCU8 1-1107;1-469;1-466;1-107, |||); assay: EMSA; without PCNA; EMSA: 20 mM Tris-HCl pH 8.0, 20 mM KCl, 1 mM EDTA, 0.5 mM TCEP, 20 nM probe, 10-80 nM Pol delta, 25 C 30 min; 7% native PAGE, 0.5x TBE; conditions: protein: recombinant;recombinant;recombinant;recombinant; copies: 1;1;1;1; label: 5'-fluorescein (FAM) on strand 1; 5' overhang 16 nt on template strand 2; one unpaired A in strand 2 as printed
POLD1 WT (catalytic subunit of Pol delta);POLD2;POLD3;POLD4, sequence (P28340 whole entry, stated change not applied, chain 1 of 4): as the sequence (P28340 whole entry H1066Y, chain 1 of 4) above, with Y1066H counted along it
POLD1 WT (catalytic subunit of Pol delta);POLD2;POLD3;POLD4, sequence (P49005 whole entry, stated change not applied, chain 2 of 4): as the sequence (P49005 whole entry, chain 2 of 4) above
POLD1 WT (catalytic subunit of Pol delta);POLD2;POLD3;POLD4, sequence (Q15054 whole entry, stated change not applied, chain 3 of 4): as the sequence (Q15054 whole entry, chain 3 of 4) above
POLD1 WT (catalytic subunit of Pol delta);POLD2;POLD3;POLD4, sequence (Q9HCU8 whole entry, stated change not applied, chain 4 of 4): as the sequence (Q9HCU8 whole entry, chain 4 of 4) above

[12] = molecular target: T2, POLD1-HY;POLD2;POLD3;POLD4; assay: as above; conditions: protein: recombinant;recombinant;recombinant;recombinant; copies: 1;1;1;1; label: 5'-fluorescein (FAM) on strand 1; 5' overhang 16 nt on template strand 2; one unpaired A in strand 2 as printed
[13] = molecular target: T3, POLD1-HW;POLD2;POLD3;POLD4; assay: as above; conditions: protein: recombinant;recombinant;recombinant;recombinant; copies: 1;1;1;1; label: 5'-fluorescein (FAM) on strand 1; 5' overhang 16 nt on template strand 2; one unpaired A in strand 2 as printed

Measured: binding result

B1: dsDNA probe (Fig 3C,D) (dsDNA)
DNA 1: GTTTCTTCAATCTTCATCATACAGGTCAG
DNA 2: CTGACCTGTATGATGAAGATTGAAAGAAAC
binds: [1] | [2] | [3]

B2: ssDNA probe (Fig 3E,F) (ssDNA)
DNA: GTTTCTTCAATCTTCATCATACAGGTCAG
binds: [4] | [5]

B3: primer-template (Fig 3A,B) (mixed)
DNA 1: GTTTCTTCAATCTTCATCATACAGGTCAG
DNA 2: CTCGTCAGCATCTCGTCTGACCTGTATGATGAAGATTGAAAGAAAC
not listed: [1] | [2] | [3] | [4] | [5]
binds: all other assays above
